Reference: paper PMC10952772 (The Febs Journal, 2022)
Read-outs that look alike come from different tables or passages of the source.

B1: Human Scribble (SCRIB) PDZ2 domain (860-950) (domain or fragment)
chain: RHVACLARSERGLGFSIAGGKGSTPYRAGDAGIFVSRIAEGGAAHRAGTLQVGDRVLSINGVDVTEARHDHAVSLLTAASPTIALLLEREA

Columns and labels:
PDZ = conditions: phosphorylated at the −2 position; ref [51], [52]; cited from earlier work
AUC = biological target: the molecule itself; test: AUC
[1] = biological target: T1, Human Scribble (SCRIB) PDZ1 domain (728-815) (human, UniProt Q14160 728-815); test: ITC
[2] = biological target: T2, Human Scribble (SCRIB) PDZ3 domain (1002-1094) (human, UniProt Q14160 1002-1094); test: ITC
T2 sequence: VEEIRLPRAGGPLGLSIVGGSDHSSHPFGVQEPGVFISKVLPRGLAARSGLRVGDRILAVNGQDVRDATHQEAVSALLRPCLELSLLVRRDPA

[3] = biological target: T3, Human Scribble (SCRIB) PDZ4 domain (1099-1203) (human, UniProt Q14160 1099-1203); test: ITC
T3 sequence: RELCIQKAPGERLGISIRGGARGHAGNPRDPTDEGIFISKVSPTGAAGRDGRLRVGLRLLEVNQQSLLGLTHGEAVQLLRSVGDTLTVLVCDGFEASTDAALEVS

[4] = biological target: B1; test: ITC
[5] = biological target: T1, Human Scribble (SCRIB) PDZ1 domain …; test: ITC; remark: listed apart in the source
[6] = biological target: T2, Human Scribble (SCRIB) PDZ3 domain …; test: ITC; remark: listed apart in the source
[7] = biological target: T3, Human Scribble (SCRIB) PDZ4 domain …; test: ITC; remark: listed apart in the source
[8] = biological target: B1; test: ITC; remark: listed apart in the source

T1 sequence (Q14160 728-815): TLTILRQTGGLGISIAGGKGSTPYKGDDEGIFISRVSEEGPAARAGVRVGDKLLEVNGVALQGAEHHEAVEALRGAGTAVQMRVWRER

For “HTLV‐1 Tax1: oncogenic Tax1 protein of HTLV‐1”, which “effect of phosphorylation at the −2 position of PBM on PDZ recognition” value (PDZ) is on record?
Its value is “phosphorylation inhibiting PDZ recognition”.

Which “stoichiometry N” value (AUC) does the source give for B1 here?
Its value is 2.

For KHFRETEV [HTLV-1 Tax1 PBM peptide (KHFRETEV, residues 346-353)], which Kd [1] is on record?
Its Kd is 7.8 µM.

What about the dH [1] of the same molecule?
The dH was -4.21 kcal/mol.

What about the “stoichiometry N” value [1] of the same molecule?
The value was 1.1.

And the Kd [2]?
Its Kd is 9.1 µM.

What about the dH [2] of the same molecule?
Its dH is -13.3 kcal/mol.

What about the “stoichiometry N” value [2] of the same molecule?
The value was 0.9.

What about the Kd [3] of the same molecule?
Its Kd is 40.2 µM.

What about the dH [3] of the same molecule?
Its dH is -2.17 kcal/mol.

What about the “stoichiometry N” value [3] of the same molecule?
Its value is 1.

What about the Kd [4] of the same molecule?
Its Kd is 15.4 µM.

What about the dH [4] of the same molecule?
The dH was -4.08 kcal/mol.

And the “stoichiometry N” value [4]?
Its value is 1.1.

Which Kd [5] does the source give for RSWFETWV [Superpeptide (RSWFETWV)] here?
The Kd was 600 nM.

And the dH [5]?
Its dH is -3.72 kcal/mol.

And the “stoichiometry N” value [5]?
Its value is 0.9.

What about the Kd [6] of the same molecule?
The Kd was 1600 nM.

What about the dH [6] of the same molecule?
Its dH is -11.3 kcal/mol.

What about the “stoichiometry N” value [6] of the same molecule?
The value was 0.9.

What about the Kd [7] of the same molecule?
The Kd was 12.6 µM.

What about the dH [7] of the same molecule?
Its dH is -2.9 kcal/mol.

And the “stoichiometry N” value [7]?
The value was 1.1.

And the Kd [8]?
Its Kd is 2200 nM.

And the dH [8]?
Its dH is -7.04 kcal/mol.

What about the “stoichiometry N” value [8] of the same molecule?
The value was 1.
